# Experimental data published in publication PMC12412097, “Structure and Nitrite Reductase Activity of the Di-iron Protein ScdA in Staphylococcus aureus” (Journal of the American Chemical Society, 2025).
# B1: cysteine-free (CF) ScdA variant (C30A/C31A/C191A), N-terminal His6 tag (enzyme)
# chain: not shown
# notes: also called CF variant; not shown: His6, N-terminal, kept
# B2: wild-type (WT) ScdA, S. aureus, N-terminal His6 tag (enzyme)
# chain: not shown
# notes: also called as-isolated WT; reduced WT; not shown: His6, N-terminal, kept
# B3: ScdA S77E variant (wild-type cysteines) (enzyme)
# chain: not shown
# notes: also called S77E mutant; not shown: His6, N-terminal, kept
# B4: tag-free variant of CF ScdA (tagless ScdA) (enzyme)
# chain: not shown
# notes: also called CF ScdA (crystal); source: E. coli, purified (Q Sepharose, SEC)
# B5: CF ScdA S77C (enzyme)
# chain: not shown
# notes: not shown: His6, N-terminal, kept
# Columns and labels:
# [1] = target: the molecule itself; test: SEC; Superdex 75 Increase 10/300 GL, 20 mM Tris, 150 mM NaCl, pH 7.6; no reducing agent (WT also with MV radicals); oligomer peak at 9.2 mL, dimer peak at 10.9 mL
# [2] = target: the molecule itself; test: SEC; as a1, protein treated with the reducing agent DTT
# crystal structure = target: the molecule itself; test: crystal structure
protein,measurement,setting,value
B1,stoichiometry N,[1],2
B2,stoichiometry N,[2],2
B3,binding result,[1],binds
B4,stoichiometry N,crystal structure,2
B5,stoichiometry N,[1],2
